B1: HDV Ribozyme (parent)
chain: GGCCGGCAUGGUCCCAGCCUCCUCGCUGGCGCCGGCUGGGCAACAUUCCGAGGGGACCGUCCCCUCGGUAAUGGCGAAUGGGACCCA

Variants of: B1
Assay: self-cleavage, relative activity (ratio to wild type); higher = more cleavage; co-transcriptional

Variant | self-cleavage
GGCCGGCAUGUUCCCAGCCUCCUCGCUGGCGCCGGCUGGGCAACAUUCCGAGGGGACCGUCCCCUCGGUAAUGGCGAAGGGGACCCA | 0.231
GGCCGGCAUGUUCCCAGCCUCCUCGCUGGCGCCGGCUGGGCAACAUUCCGAGGGGACCGUCCCCUCGGUAAUGGCGAAAGGGACCCA | 0.148
GGCCGGCAUGUUCCCAGCCUCCUCGCUGGCGCCGGCUGGGCAACAUUCCGAGGGGACCGUCCCCUCGGUAAUGCCGAAUGGGACCCA | 0.0845
GGCCGGCAUGUUCCCAGCCUCCUCGCUGGCGCCGGCUGGGCAACAUUCCGAGGGGACCGUCCCCUCGGUAAUGACGAAUGGGACCCA | 0.114
GGCCGGCAUGUUCCCAGCCUCCUCGCUGGCGCCGGCUGGGCAACAUUCCGAGGGGACCGGCCCCUCGGUAAUGGCGAAUGGGACCCA | 0.381
GGCCGGCAUGGACCCAGCCUCAUCGCUGGCGCCGGCUGGGCAACAUUCCGAGGGGACCGUCCCCUCGGUAAUGGCGAAUGGGACCCA | 0
GGCCGGCAUGGACCCAGCCUCUUCGCUGGCGCCGGCUGGGCAACAUUCCGAGGGGACCGUCCCCUCGGUAAUGGCGAAUGGGACCCA | 0.0426
GGCCGGCAUGUUCCCAGCCUCCUCGCUGGCGCCGGCUGGGCAACAUUCCGAGGGGACCGUCCCCCCGGUAAUGGCGAAUGGGACCCA | 0.19
GGCCGGCAUGUUCCCAGCCUCCUCGCUGGCGCCGGCUGGGCAACAUUCCGAGGGGACCGUCCCCGCGGUAAUGGCGAAUGGGACCCA | 0.542
GGCCGGCAUGGACCCAGCCUCCUCGCUGGCGCCGGCUGGGCAACAUUCCGAGGGGACCGUCCCCUCGGUUAUGGCGAAUGGGACCCA | 0.332
GGCCGGCAUGGACCCAGCCUCCUCGCUGGCGCCGGCUGGGCAACAUUCCGAGGGGACCGUCCCCUCGGUGAUGGCGAAUGGGACCCA | 0.277
GGCCGGCAUGUUCCCAGCCUCCGCGCUGGCGCCGGCUGGGCAACAUUCCGAGGGGACCGUCCCCUCGGUAAUGGCGAAUGGGACCCA | 0.134
GGCCGGCAUGUUCCCAGCCUCCUCGCUGGCGCCGGCUGGGCAACAGUCCGAGGGGACCGUCCCCUCGGUAAUGGCGAAUGGGACCCA | 0.285
GGCCGGCAUGUUCCCAGCCUCCUCGCUGGCGCCGGCUGGGCAACAAUCCGAGGGGACCGUCCCCUCGGUAAUGGCGAAUGGGACCCA | 0.18
GGCCGGCAUGGACCCAGCCUCCUCGCUGGCGCAGGCUGGGCAACAUUCCGAGGGGACCGUCCCCUCGGUAAUGGCGAAUGGGACCCA | 0.0604
GGCCGGCAUGUUCCCAGCCUCCUCGCUGGCGCCGGCUGGGCAACAUUCCGAGGGGACCGUCCCCUCGGUAAAGGCGAAUGGGACCCA | 0.287
GGCCGGCAUGUUCCCAGCCUCCUCGCUGGCGCCGGCUGGGCAACAUUCCGAGGGGACCGUCCCCUCGGUAAGGGCGAAUGGGACCCA | 0.145
GGCCGGCAUGGACCCAGCCUCCUCGCUGGCGCCGGCUGGGCAACAUUCCGAGGGGACCGUCCCCUCGGUAAUGGCGAAUGGGACCCC | 0.251
GGCCGGCAUGGACCCAGCCUCCUCGCUGGCGCCGGCUGGGCAACAUUCCGAGGGGACCGUCCCCUCGGUAAUGGCGAAUGGGACCCG | 0.115
GGCCGGCAUGGACCCAGCCUCCUCGCUGGCGCCGGCUGGGCAACAUUCCGAGGGGACCGUCCCCUCGGUAAUGGCGAAUGGGACCCU | 0.262
GGCCGGCAUGUUCCCAGCCUCCUCGCUGGCGCCGGCUGGGCAACAUUCCGAGGGGACCGUCCCCUCGGUAAUGGCGAAUGGCACCCA | 0.117
GGCCGGCAUGUUCCCAGCCUCCUCGCUGGCGCCGGCUGGGCAACAUUCCGAGGGGACCGUCCCCUCGGUAAUGGCGAAUGGAACCCA | 0.0678

Variant | self-cleavage
GGCCGGCAUGGACCCAGCCUCCUCGCUGGCGCCGGCUGGGCAACAUUCCGUGGGGACCGUCCCCUCGGUAAUGGCGAAUGGGACCCA | 0.277
GGCCGGCAUGGACCCAGCCUCCUCGCUGGCGCCGGCUGGGCAACAUUCCGCGGGGACCGUCCCCUCGGUAAUGGCGAAUGGGACCCA | 0.237
GGCCGGCAUGGACCCAGCCUCCUCGCUGGAGCCGGCUGGGCAACAUUCCGAGGGGACCGUCCCCUCGGUAAUGGCGAAUGGGACCCA | 0.0652
GGCCGGCAUGGACCCAGCCUCCUCGCUGGGGCCGGCUGGGCAACAUUCCGAGGGGACCGUCCCCUCGGUAAUGGCGAAUGGGACCCA | 0.131
GGCCGGCAUGGACCCAGCCUGCUCGCUGGCGCCGGCUGGGCAACAUUCCGAGGGGACCGUCCCCUCGGUAAUGGCGAAUGGGACCCA | 0.237
GGCCGGCAUGGACCCAGCCUUCUCGCUGGCGCCGGCUGGGCAACAUUCCGAGGGGACCGUCCCCUCGGUAAUGGCGAAUGGGACCCA | 0.0831
GGCCGGCAUGGACCCAGCCUCCUCGCUGGCGCCGGCUGGGCAACAUUCCGAGGGGACCGUCCCCUCGGUAGUGGCGAAUGGGACCCA | 0
GGCCGGCAUGGACCCAGCCUCCUCGCUGGCGCCGGCUGGGCAACAUUCCGAGGGGACCGUCCCCUCGGUACUGGCGAAUGGGACCCA | 0.262
GGCCGGCAUGGACCCAGCCUCCUCGCUGGCGCCGGCUGGGCAACAUUCCGAGGGGACCGUCCCCUCGGUAUUGGCGAAUGGGACCCA | 0.262
GGCCGGCAUGUUCCCAGCCUCCUCGCUGGCGCCGGCUGGGCAACAUUCCGAGGGGACCGUCCCCUCGGUAAUGGCAAAUGGGACCCA | 0.292
GGCCGGCAUGGACCCAGCCUCCUCGCUGGCGCCGGCUGGGCAACUUUCCGAGGGGACCGUCCCCUCGGUAAUGGCGAAUGGGACCCA | 0
GGCCGGCAUGGACCCAGCCUCCUCGCUGGCGCCGGCUGGGCAACCUUCCGAGGGGACCGUCCCCUCGGUAAUGGCGAAUGGGACCCA | 0
GGCCGGCAUGGACCCAGCCUCCUCGCUGGCGCCGGCUGGGCAACGUUCCGAGGGGACCGUCCCCUCGGUAAUGGCGAAUGGGACCCA | 0.277
GGCCGGCAUGUUCCCAGCCUCCUCGCUGGCGCCGGCUGGGCAACAUUCCGAGGGGACCGUCCCCUCGGUAAUGGCGAAUGAGACCCA | 0.0623
GGCCGGCAUGGACCCAGCCUCCUCGCUGGCGCCGGCUGGGCAACAUUCCGAGGGGUCCGUCCCCUCGGUAAUGGCGAAUGGGACCCA | 0.403
GGCCGGCAUGGACCCAGCCUCCUCGCUGGCGCCGGCUGGGCAACAUUCCGAGGGGCCCGUCCCCUCGGUAAUGGCGAAUGGGACCCA | 0.262
GGCCGGCAUGGACCCAGCCUCCUCGCUGGCGCCGGCUGGGCAACAUUCCGAGGGGGCCGUCCCCUCGGUAAUGGCGAAUGGGACCCA | 0.196
GGCCGGCAUGGACCCAGCCUCCUCGCUGGCGCCGGCUGGGCACCAUUCCGAGGGGACCGUCCCCUCGGUAAUGGCGAAUGGGACCCA | 0.161
GGCCGGCAUGGACCCAGCCUCCUCGCUGGCGCCGGCUGGGCAGCAUUCCGAGGGGACCGUCCCCUCGGUAAUGGCGAAUGGGACCCA | 0.0831
GGCCGGCAUGGAACCAGCCUCCUCGCUGGCGCCGGCUGGGCAACAUUCCGAGGGGACCGUCCCCUCGGUAAUGGCGAAUGGGACCCA | 0.0378
GGCCGGCAUGGAGCCAGCCUCCUCGCUGGCGCCGGCUGGGCAACAUUCCGAGGGGACCGUCCCCUCGGUAAUGGCGAAUGGGACCCA | 0
GGCCGGCAUGUUCCCAGCCUCCUCGCUGGCGCCGGCUGGGCAACAUCCCGAGGGGACCGUCCCCUCGGUAAUGGCGAAUGGGACCCA | 0.156

Variant | self-cleavage
GGCCGGCAUGGACCCAGCCUCCUUGCUGGCGCCGGCUGGGCAACAUUCCGAGGGGACCGUCCCCUCGGUAAUGGCGAAUGGGACCCA | 0.135
GGCCGGCAUGGACCCAGCCUCCUGGCUGGCGCCGGCUGGGCAACAUUCCGAGGGGACCGUCCCCUCGGUAAUGGCGAAUGGGACCCA | 0.0437
GGCCGGCAUGGACCCAGCCUCCUCGCUGGCGCCGGCUGGGCAACAUUCCGAGGGGACCGUCCCCUCGGUAAUGGCGACUGGGACCCA | 0.123
GGCCGGCAUGGACCCAGCCUCCUCGCUGGCGCCGGCUGGGCAACAUUCCGAGGGGACCGUCCCCUCGGUAAUGGCGAGUGGGACCCA | 0.237
GGCCGGCAUGGACUCAGCCUCCUCGCUGGCGCCGGCUGGGCAACAUUCCGAGGGGACCGUCCCCUCGGUAAUGGCGAAUGGGACCCA | 0.332
GGCCGGCAUGGACCCAGCGUCCUCGCUGGCGCCGGCUGGGCAACAUUCCGAGGGGACCGUCCCCUCGGUAAUGGCGAAUGGGACCCA | 0
GGCCGGCAUGGACCCAGCCUCCUCGCUGGCGCCGGCUGGGCAACAUUCCGAGGGGACCGUCCCCUCGGUAAUGGCGUAUGGGACCCA | 0
GGCCGGCAUGGACCCAGCCUCCUCGCUGGCGCCGGCUGGGCAACAUUCCGAGGGGACCGUCCCCUCGGUAAUGGCGGAUGGGACCCA | 0.151
GGCCGGCAUGGACCCAGCCUCCUCGCUGGCGCCGGCUGGGCAACAUUCCGAGGGGACCGUCCCCUCGGUAAUGGCGCAUGGGACCCA | 0.0755
GGCCGGCAUGGACCCUGCCUCCUCGCUGGCGCCGGCUGGGCAACAUUCCGAGGGGACCGUCCCCUCGGUAAUGGCGAAUGGGACCCA | 0.32
GGCCGGCAUGGACCCGGCCUCCUCGCUGGCGCCGGCUGGGCAACAUUCCGAGGGGACCGUCCCCUCGGUAAUGGCGAAUGGGACCCA | 0.383
GGCCGGCAUGUUCCCAGCCUCCUCGCUGGCGCCGGCCGGGCAACAUUCCGAGGGGACCGUCCCCUCGGUAAUGGCGAAUGGGACCCA | 0.208
GGCCGGCAUGUUCCCAGCCCCCUCGCUGGCGCCGGCUGGGCAACAUUCCGAGGGGACCGUCCCCUCGGUAAUGGCGAAUGGGACCCA | 0.0248
GGCCGGCAUGGACCCAGCCUCCUCGGUGGCGCCGGCUGGGCAACAUUCCGAGGGGACCGUCCCCUCGGUAAUGGCGAAUGGGACCCA | 0.609
GGCCGGCAUGUUCCCAGCCUCCUCGCUGGCGCCGGCUGGGCAACAUUCCGAGGGGACCGUCCCCUCGGAAAUGGCGAAUGGGACCCA | 0.317
GGCCGGCAUGUUCCCAGCCUCCUCGCUGGCGCCGGCUGGGCAACAUUCCGAGGGGACCGUCCCCUCGGCAAUGGCGAAUGGGACCCA | 0.161
GGCCGGCAUGUUCCCAGCCUCCUCGCUGGCGCCGGCUGGGCAACAUUCCGAGGGGACCGUCCCCUCGGGAAUGGCGAAUGGGACCCA | 0.309
GGCCGGCAUGUUCCCAGCCUCCUCGCCGGCGCCGGCUGGGCAACAUUCCGAGGGGACCGUCCCCUCGGUAAUGGCGAAUGGGACCCA | 0.388
GGCCGGCAUGGACCCAGACUCCUCGCUGGCGCCGGCUGGGCAACAUUCCGAGGGGACCGUCCCCUCGGUAAUGGCGAAUGGGACCCA | 0.0604
GGCCGGCAUGGACCCAGUCUCCUCGCUGGCGCCGGCUGGGCAACAUUCCGAGGGGACCGUCCCCUCGGUAAUGGCGAAUGGGACCCA | 0.217

Source: the RNAGym collection of RNA variant scans (doi:10.7554/elife.80360)
